Here are results for 140 substances from the supplement of paper PMC12042874.

± gives the uncertainty stated by the source.

The data set can be described thus: amyloid nucleation score (Sup35N fusion, yeast selection) (log enrichment); library NNK2; higher = more nucleation; inactive = no reads after selection. The essentials:
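Growth for 7 days at 30°C on medium lacking adenine and uracil followed a 24-hour induction with 100 μM copper sulfate of psi-negative yeast expressing peptides of 20 random codons fused to Sup35N. Input and output plasmid inserts were sequenced with Illumina, and sequences with under 100 input reads were excluded. Nucleation score is the DiMSum log enrichment of output over input reads, centred on the mode score of non-aggregating sequences.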
Turning to FFQLSYNIQASSNNLMASVS, the amyloid nucleation score entry is “inactive”.

As for FFVLRHA, the amyloid nucleation score was -0.513 ± 0.32.

FFVMGRSGYSLVALKREKSI: the amyloid nucleation score entry is “inactive”.

Substance FFYLRFAQWQLCRTFNAQGM gave an amyloid nucleation score of -0.184 ± 1.1.

Substance FFYQVWGNN came in with an amyloid nucleation score of 2.26 ± 0.11.

As for FFYSVRVRPALIIC, the amyloid nucleation score entry is “inactive”.

Take FGDWWSI: the amyloid nucleation score is -1.1 ± 0.63.

For FGFGRRKSKKWLVDLDPRR, the amyloid nucleation score entry was “inactive”.

Substance FGFNCMGWYRDCAVTSTWGA registered an amyloid nucleation score of 0.809 ± 0.31.

In turn, FGLLWNNQSWLVARVSCSNL returned an amyloid nucleation score of -0.04 ± 0.36.

FGMSCWFLFFASQFSVTNNC gave an amyloid nucleation score of -1.51 ± 0.76.

For FGNRLNFDILTTFVIKRWCM, the amyloid nucleation score is -0.342 ± 0.76.

Substance FGSALFSIILH had an amyloid nucleation score of 5.607 ± 0.033.

In the case of FGWGN, the amyloid nucleation score stood at 0.09 ± 0.51.

FGWVINVNVRPTRFVTEGPV: the amyloid nucleation score stood at 6.54 ± 0.073.

In turn, FGYKR gave an amyloid nucleation score of -0.828 ± 0.61.

As for FGYVVVKRPSSMLLRASRDG, the amyloid nucleation score was -0.619 ± 1.

As to FHGRSATGISRLYLKRGCSG, the amyloid nucleation score is 0.761 ± 0.47.

With FHIDTIRTVRLAWYTTEHWQ, the amyloid nucleation score was found to be 5.34 ± 0.07.

As for FHIFQFVSLGFWSSEG, the amyloid nucleation score result was “inactive”.

FHISYDTSS had an amyloid nucleation score of -0.35 ± 1.1.

FHSRFSMRPDDLWSQNARVW: the amyloid nucleation score came to 0.028 ± 0.79.

Substance FHTLRVE had an amyloid nucleation score of 1.46 ± 0.3.

In turn, FHVCWERSMLIRV showed an amyloid nucleation score of -0.559 ± 0.76.

The substance FHWYGTVVIYVYLLADVYRC returned an amyloid nucleation score of -0.153 ± 0.36.

FICPMYESSRIVV: the amyloid nucleation score turned out to be 0.335 ± 0.64.

Substance FIFRMHAFNGIRLWCV had an amyloid nucleation score of 1.38 ± 0.22.

The substance FIFVLI displayed an amyloid nucleation score of 3.08 ± 0.11.

In the case of FILRHQFCLRTLIYGPSIFF, the amyloid nucleation score was determined as 7.465 ± 0.045.

With FIMSSVCMIRCNITCSHQPS, the amyloid nucleation score is 8.21 ± 0.035.

Consider FIMVQRLSCLVVQISRAGAC, for which the amyloid nucleation score was determined as 3.79 ± 0.12.

FINRPVKRKLNSSNIYICV gave an amyloid nucleation score of 3.16 ± 0.14.

For the substance FIRQKGYTVFLVCGNYVWMT, the amyloid nucleation score turned out to be 5.979 ± 0.056.

With FIRSIHCVKMDELAWLLSVS, the amyloid nucleation score is 0.252 ± 0.46.

For the substance FIRWSLWR, the amyloid nucleation score was -0.012 ± 1.1.

As for FITNHK, the amyloid nucleation score result was “inactive”.

On to FIYVSWRTWSEIVGMCFGVV, for which the amyloid nucleation score is -1 ± 0.45.

With FKFGPMDSIKYMSANFISQC, the amyloid nucleation score was -0.189 ± 0.64.

For the substance FKICGTFDAFKKL, the amyloid nucleation score result was “inactive”.

In turn, FKIDNGWYWCRTCGQNKGSS yielded an amyloid nucleation score of -0.461 ± 0.56.

FKNFFSYLLLGVPLIAAITW had an amyloid nucleation score of -1.67 ± 0.41.

With FKSLVSMVENDWMS, the amyloid nucleation score is -0.855 ± 0.44.

For FLCLLDRVIMTLFFRIAL, the amyloid nucleation score came out at 0.453 ± 0.65.

Regarding FLDGAYSWLWLGSYIRGLSH, the amyloid nucleation score is -0.262 ± 0.56.

Regarding FLDWVLSD, the amyloid nucleation score result is “inactive”.

Substance FLGFI displayed an amyloid nucleation score of -1.94 ± 1.1.

In the case of FLLPSYERDSSYVAYF, the amyloid nucleation score is -0.687 ± 0.79.

As for FLLRHSSCEVIGC, the amyloid nucleation score came out at 0.665 ± 0.36.

As to FLNKDGNIV, the amyloid nucleation score was -0.022 ± 0.55.

Substance FLNNVVYRHCDSYLTGNCRN displayed an amyloid nucleation score of 5.151 ± 0.041.

The substance FLNPFNHREHPRVED showed an amyloid nucleation score of 0.775 ± 0.62.

For the substance FLNPYNFWLDFWYFLIDSMT, the amyloid nucleation score result is “inactive”.

Take FLNSWQVGYLSCSSKLVACN: the amyloid nucleation score result is “inactive”.

In turn, FLQRSRNMNCLRGHDFNSNG showed an amyloid nucleation score of 0.053 ± 1.1.

With FLRVRP, the amyloid nucleation score was -0.719 ± 0.29.

For FLSEFVRIGPYARS, the amyloid nucleation score entry is “inactive”.

In the case of FLSLIGKSRS, the amyloid nucleation score result is “inactive”.

Consider FLSVTFFRLIRCMAL, for which the amyloid nucleation score entry was “inactive”.

For FLTYRLSNYYTPGKFCVYFK, the amyloid nucleation score result is “inactive”.

Turning to FLVLVWSRCSNLFL, the amyloid nucleation score was found to be 2.86 ± 0.14.

The substance FLVVGGT returned an amyloid nucleation score of -0.112 ± 0.21.

Regarding FMCLHSARNVVMRMDVRVVL, the amyloid nucleation score stood at 4.93 ± 0.078.

On to FMGFTISFFVRDFAPDLTKR, for which the amyloid nucleation score is 3.1 ± 0.064.

On to FMITQSFSGT, for which the amyloid nucleation score is -1.05 ± 0.41.

As for FMLFRRGKNQRFRRLTDYKN, the amyloid nucleation score is -2.44 ± 1.1.

For FMMTRKGIFELHFISRE, the amyloid nucleation score was found to be 0.097 ± 1.1.

Regarding FMRGLMARLCER, the amyloid nucleation score came out at 0.293 ± 0.4.

Consider FMSGGVVYSLMTGTR, for which the amyloid nucleation score turned out to be 0.388 ± 0.36.

Substance FMTGSFEENS showed an amyloid nucleation score of -0.945 ± 1.1.

For FNDRHVCHREKFSRELGFCS, the amyloid nucleation score was -0.479 ± 1.

Substance FNFYKWYYIGLTAISFVYTV came in with an amyloid nucleation score of -1.51 ± 1.

Regarding FNIMIWA, the amyloid nucleation score entry was “inactive”.

For the substance FNIPGHSH, the amyloid nucleation score is -1.51 ± 0.78.

In the case of FNLLARMIVYGIVLSQGKTG, the amyloid nucleation score was -0.01 ± 0.63.

In the case of FNMTIVDISLYRFMNVLKRP, the amyloid nucleation score was -0.907 ± 0.78.

Regarding FNNMWYSFKQSLSACSVGRR, the amyloid nucleation score result was “inactive”.

In turn, FNRDK registered an amyloid nucleation score of -0.512 ± 0.76.

Regarding FNSCDAWYCMNSQVSRTTYL, the amyloid nucleation score is -0.624 ± 0.41.

Consider FNSLGFRLTSCIDRVTLVLW, for which the amyloid nucleation score result is “inactive”.

Substance FNVEVRV came in with an amyloid nucleation score of -0.379 ± 0.45.

FPFKCTSQDSFFFNFKWSRR: the amyloid nucleation score turned out to be 3.25 ± 0.17.

For the substance FPIYFFA, the amyloid nucleation score result was “inactive”.

FPLDIKGKWDVGNMEGKVVE yielded an amyloid nucleation score of 0.486 ± 0.41.

FPLVWA showed an amyloid nucleation score of 0.416 ± 0.22.

Consider FPSCSRGLHFKGLWTWYFPT, for which the amyloid nucleation score is -0.388 ± 1.1.

Take FPTIDRQVFDVRR: the amyloid nucleation score is -1.17 ± 0.41.

As for FRALKMISDPSRHSVLL, the amyloid nucleation score is -0.02 ± 0.34.

As for FRDANKGCIEKFVVTCDFRM, the amyloid nucleation score is 0.003 ± 0.38.

On to FRFTQDMDFRAQFDELSWRL, for which the amyloid nucleation score came to 2 ± 0.28.

In turn, FRGLVILNRNGVCDILEYGC showed an amyloid nucleation score of -0.58 ± 0.27.

FRGVLWLSYLQDYRFDLYCM came in with an amyloid nucleation score of -0.773 ± 0.61.

Take FRIYA: the amyloid nucleation score is 0.388 ± 0.29.

On to FRMFNVGFPDRPIMFRVDRL, for which the amyloid nucleation score was found to be 0.41 ± 0.74.

As to FRRNKNN, the amyloid nucleation score entry was “inactive”.

Consider FRRVLCYKYYSFA, for which the amyloid nucleation score was found to be 2.42 ± 0.14.

Substance FRSGRWRNGALSWHALATL yielded an amyloid nucleation score of 0.658 ± 0.52.

For FRSMFISWVM, the amyloid nucleation score was -0.271 ± 1.

FRSNSDLISFERASFR displayed an amyloid nucleation score of -1.62 ± 0.55.

In turn, FRTASLHVCLFLSG gave an amyloid nucleation score of -0.316 ± 0.61.

In the case of FRVDYKMKCAFASHFSNSFY, the amyloid nucleation score entry is “inactive”.

FRVIWVVLVACQVSFHVRFV yielded an amyloid nucleation score of -0.283 ± 1.

For FRYIFRHKHGWTFLHKMVRK, the amyloid nucleation score was -1.07 ± 1.1.

Take FRYLDRSNYRKSCGYIITLT: the amyloid nucleation score was -0.74 ± 1.1.

For FSDWIWTYCSQSFNGQE, the amyloid nucleation score was -0.817 ± 0.76.

For the substance FSEPWKWYYADLVFLSVTWL, the amyloid nucleation score entry was “inactive”.

As for FSEVSCGLCTMYTLFVEFFN, the amyloid nucleation score stood at 0.174 ± 1.

Turning to FSFNIPQFINV, the amyloid nucleation score result was “inactive”.

Consider FSFRLYMEFLWGI, for which the amyloid nucleation score result was “inactive”.

In the case of FSFYLGRKSMRWCNSCWYSW, the amyloid nucleation score was -0.445 ± 0.22.

For FSGRKPSIVLHHSSECQP, the amyloid nucleation score turned out to be 2.38 ± 0.2.

FSGSTIDWL had an amyloid nucleation score of -0.302 ± 0.3.

FSKSVVGSPERKHVDT displayed an amyloid nucleation score of 0.948 ± 0.34.

In turn, FSMFMDIRRFMGSRWCV gave an amyloid nucleation score of 0.089 ± 1.1.

As for FSPLC, the amyloid nucleation score turned out to be 1.83 ± 0.14.

FSRQISNGFIRGLFL: the amyloid nucleation score result was “inactive”.

On to FSSFDIMRQLTMLNICLVSW, for which the amyloid nucleation score was 5.773 ± 0.047.

Turning to FSSNLISPSVEISCVLIWLG, the amyloid nucleation score was found to be 5.67 ± 0.074.

For FSSQFHLRAYNTIRCSLDDF, the amyloid nucleation score is 0.534 ± 0.8.

In turn, FSSSEHVFQVDGGFDKNRPI registered an amyloid nucleation score of -1.47 ± 0.78.

In turn, FSTCYPPSDWVSRMASETLN came in with an amyloid nucleation score of -0.096 ± 0.65.

FSVDMHRWLMTWRHQRDRRV had an amyloid nucleation score of 2.75 ± 0.18.

Take FSVMMLMAVLMGTKIGVTEN: the amyloid nucleation score worked out at 4.19 ± 0.087.

Turning to FSVRVTSRFIRYEGSFHFSK, the amyloid nucleation score was determined as 0.032 ± 0.76.

In the case of FTGCVYSVFSNQQ, the amyloid nucleation score was 4.76 ± 0.11.

For the substance FTIALIYTFLLISCLLGMSV, the amyloid nucleation score turned out to be 0.164 ± 1.1.

In turn, FTLFVRHPGIVALERNFMVR returned an amyloid nucleation score of -0.062 ± 0.35.

Take FTMGVRRLCYSWLRARFVKC: the amyloid nucleation score was -0.368 ± 1.

With FTNLVTLYVYCYSFWYGILN, the amyloid nucleation score was -0.232 ± 1.1.

In turn, FTNNSPARSCDRVHGDGVRH came in with an amyloid nucleation score of 0.376 ± 0.35.

The substance FTNVSEIWMSFGHNPESGLA registered an amyloid nucleation score of 2.92 ± 0.074.

In turn, FTVLCYSSDIMEDFRFTHHN registered an amyloid nucleation score of 4.12 ± 0.047.

Take FVCLVLRLCTMGSRASGLKK: the amyloid nucleation score stood at 0.255 ± 1.1.

Regarding FVCYADTNNGPQVVRTELSV, the amyloid nucleation score is -0.299 ± 1.1.

The substance FVDDLARGLLVKRECSWQMQ gave an amyloid nucleation score of 0.523 ± 0.33.

As for FVEGLYWVSVVILG, the amyloid nucleation score was -1.58 ± 1.

Take FVEMLYLGDVGDCHILQCVY: the amyloid nucleation score entry was “inactive”.

As to FVGTAQEEIHGFMNCIVELR, the amyloid nucleation score result was “inactive”.

In turn, FVHIIESELYSEQTRESHLL had an amyloid nucleation score of -0.586 ± 0.29.

FVKYNCIFNASLTCHK showed an amyloid nucleation score of 7.686 ± 0.038.

As for FVLTCRSSLYAVRDRLK, the amyloid nucleation score was 1.35 ± 0.43.
